Biological target: IL-17A (agonist in the IL-17RA/IL17RC dimerization assay) (UniProt Q16552 24-155)
Assay: cell-based or functional assay

IL-17A (agonist in the IL-17RA/IL17RC dimerization assay), sequence (Q16552 24-155 limits assumed): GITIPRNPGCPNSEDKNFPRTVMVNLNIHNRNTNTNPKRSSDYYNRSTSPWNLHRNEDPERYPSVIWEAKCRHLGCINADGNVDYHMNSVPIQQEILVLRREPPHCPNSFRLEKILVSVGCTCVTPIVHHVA

IC50 in IL-17RA/IL7RC dimerization assay [µM]	Binder
< 10	Ac-IHVTIPADLWDWLNK-NH2 [peptide of SEQ ID NO: 216]
< 10	Ac-VHVTVPQELYEWVRR-NH2 [peptide of SEQ ID NO: 226]
< 10	Ac-IHVTIPADLWDWENK-NH2 [peptide of SEQ ID NO: 212]
< 10	Ac-VHVTVPQELFEWVRR-NH2 [peptide of SEQ ID NO: 225]
< 10	Ac-VHVTVPQELWEWVRR-NH2 [peptide of SEQ ID NO: 224]
< 10	Ac-IHVTIPADLFDWINK-NH2 [peptide of SEQ ID NO: 207]
< 10	Ac-IHVTIPADLWDYINK-NH2 [peptide of SEQ ID NO: 211]
< 10	Ac-IHVTIPADLWDWFNK-NH2 [peptide of SEQ ID NO: 218]
< 10	Ac-IHVTIPADLWDWKNK-NH2 [peptide of SEQ ID NO: 213]
< 10	Ac-IHVTIPADLWDWIQK-NH2 [peptide of SEQ ID NO: 220]
< 10	Ac-IHVTIPADLWDWGNK-NH2 [peptide of SEQ ID NO: 215]
< 10	Ac-IHVTIPADLWDFINK-NH2 [peptide of SEQ ID NO: 210]
< 10	Ac-IHVTIPADLWDWYNK-NH2 [peptide of SEQ ID NO: 219]
< 10	Ac-IHVTIPADLWDWANK-NH2 [peptide of SEQ ID NO: 214]
< 10	Ac-IHVTIPADLWDWIND-NH2 [peptide of SEQ ID NO: 223]
< 10	Ac-IHVTIPADLWDWIDK-NH2 [peptide of SEQ ID NO: 221]
< 10	Ac-IHVTIPADLWDWPNK-NH2 [peptide of SEQ ID NO: 217]
< 10	Ac-IHVTIPADLWDWINH-NH2 [peptide of SEQ ID NO: 222]
< 10	Ac-IHVTIPADLWDHINK-NH2 [peptide of SEQ ID NO: 209]
< 10	Ac-IHVTIPADLHDWINK-NH2 [peptide of SEQ ID NO: 206]
< 10	Ac-IHVTIPADLWNWINK-NH2 [peptide of SEQ ID NO: 208]

Second part, the binder before the results:

Binder	IC50 in IL-17RA/IL7RC dimerization assay [µM]
Ac-IHVTLPADLWDWINK-NH2 [peptide of SEQ ID NO: 181]	< 10
Ac-IHPTIPADLWDWINK-NH2 [peptide of SEQ ID NO: 170]	< 10
Ac-IHVTFPADLWDWINK-NH2 [peptide of SEQ ID NO: 184]	< 10
Ac-IYVTIPADLWDWINK-NH2 [peptide of SEQ ID NO: 166]	< 10
Ac-IHVTINADLWDWINK-NH2 [peptide of SEQ ID NO: 191]	< 10
Ac-IHFTIPADLWDWINK-NH2 [peptide of SEQ ID NO: 174]	< 10
Ac-IHVTIPVDLWDWINK-NH2 [peptide of SEQ ID NO: 195]	< 10
Ac-IHVTIPADGWDWINK-NH2 [peptide of SEQ ID NO: 202]	< 10
Ac-IHVTILADLWDWINK-NH2 [peptide of SEQ ID NO: 188]	< 10
Ac-IHVTAPADLWDWINK-NH2 [peptide of SEQ ID NO: 179]	< 10
Ac-IEVTIPADLWDWINK-NH2 [peptide of SEQ ID NO: 164]	< 10
Ac-IHVTIPIDLWDWINK-NH2 [peptide of SEQ ID NO: 196]	< 10
Ac-IHVTIPADAWDWINK-NH2 [peptide of SEQ ID NO: 201]	< 10
Ac-IHVTIPAQLWDWINK-NH2 [peptide of SEQ ID NO: 199]	< 10
Ac-IHVTVPADLWDWINK-NH2 [peptide of SEQ ID NO: 183]	< 10
Ac-IHVYIPADLWDWINK-NH2 [peptide of SEQ ID NO: 176]	< 10
Ac-IHVTYPADLWDWINK-NH2 [peptide of SEQ ID NO: 185]	< 10
Ac-IHVTIPAYLWDWINK-NH2 [peptide of SEQ ID NO: 200]	< 10
Ac-IHVTIPADLWDWIEK-NH2 [peptide of SEQ ID NO: 11]	< 0.4
Ac-VMVTIPADLYEWINK-NH2 [peptide of SEQ ID NO: 16]	< 0.4
Ac-IHWTIPADLWDWINK-NH2 [peptide of SEQ ID NO: 173]	< 10

Binder	IC50 in IL-17RA/IL7RC dimerization assay [µM]
Ac-IHVTIPADIWDWINK-NH2 [peptide of SEQ ID NO: 205]	< 10
Ac-IHVTIPADVWDWINK-NH2 [peptide of SEQ ID NO: 204]	< 10
Ac-IHVSIPADLWDWINK-NH2 [peptide of SEQ ID NO: 175]	< 10
Ac-IHVTIPLDLWDWINK-NH2 [peptide of SEQ ID NO: 193]	< 10
Ac-IHVTIGADLWDWINK-NH2 [peptide of SEQ ID NO: 187]	< 10
Ac-IHYTIPADLWDWINK-NH2 [peptide of SEQ ID NO: 172]	< 10
Ac-IHVTIPADLWDWVEE-NH2 [peptide of SEQ ID NO: 15]	< 0.4
Ac-IHVTIVADLWDWINK-NH2 [peptide of SEQ ID NO: 189]	< 10
Ac-IHVQIPADLWDWINK-NH2 [peptide of SEQ ID NO: 178]	< 10
Ac-IHLTIPADLWDWINK-NH2 [peptide of SEQ ID NO: 169]	< 10
Ac-IHVTIIADLWDWINK-NH2 [peptide of SEQ ID NO: 190]	< 10
Ac-IHVTGPADLWDWINK-NH2 [peptide of SEQ ID NO: 180]	< 10
Ac-IHVTIPADPWDWINK-NH2 [peptide of SEQ ID NO: 203]	< 10
Ac-IHGTIPADLWDWINK-NH2 [peptide of SEQ ID NO: 168]	< 10
Ac-IHITIPADLWDWINK-NH2 [peptide of SEQ ID NO: 171]	< 10
Ac-IHATIPADLWDWINK-NH2 [peptide of SEQ ID NO: 167]	< 10
Ac-IHVTIPNDLWDWINK-NH2 [peptide of SEQ ID NO: 197]	< 10
Ac-IHVTIPQDLWDWINK-NH2 [peptide of SEQ ID NO: 198]	< 10
Ac-IHVTIPPDLWDWINK-NH2 [peptide of SEQ ID NO: 194]	< 10
Ac-IQVTIPADLWDWINK-NH2 [peptide of SEQ ID NO: 165]	< 10
Ac-IHVNIPADLWDWINK-NH2 [peptide of SEQ ID NO: 177]	< 10
